Measurements from US20260285998 (published 2026).

T1: human BCMA-Fc (human)
T1 chain: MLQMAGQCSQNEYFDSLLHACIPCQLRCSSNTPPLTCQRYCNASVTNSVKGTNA


Assays:
cynomolgus BCMA-Fc = cynomolgus BCMA-Fc (cynomolgus); assay: SPR, 25C
human BCMA-Fc = target: T1, human BCMA-Fc; assay: SPR, 25C

Chain of cynomolgus BCMA-Fc (cynomolgus) (chain, as listed by the source): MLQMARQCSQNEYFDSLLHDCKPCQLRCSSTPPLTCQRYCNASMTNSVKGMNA

Binder	Kd (cynomolgus BCMA-Fc) [nM]	Kd (human BCMA-Fc) [nM]
P1AG5061 (54 parental) (antibody, V domains shown) VH: EVQLVESGGGLVKPGESLRLSCAASGFTFSNAWMDWVRQAPGKRLEWIAQITAKSNNYATYYAAPVKGRFTISRDDSKNTLYLQMNSLKKEDTAVYYCTDDGYHWGQGTLVTVSS VL: AIQMTQSPSSLSASVGDRVTIACRASEDIRNGLAWYQQKPGKAPKLLIYNANSLHTGVPSRFSGSGSGTDFTLTISSLQPEDEAIYYCEDTSKYPYTFGQGTKLEIK	1.9	1.4
P1AG5056 (54_VH1b/VL1a_N651A) (antibody, V domains shown) VH: EVQLVESGGGLVKPGGSLRLSCAASGFTFSNAWMDWVRQAPGKGLEWIAQITAKSNNYATYYAAPVKGRFTISRDDSKNTLYLQMNSLKTEDTAVYYCTDDGYHWGQGTLVTVSS VL: AIQMTQSPSSLSASVGDRVTITCRASEDIRNGLAWYQQKPGKAPKLLIYAANSLHTGVPSRFSGSGSGTDFTLTISSLQPEDFATYYCEDTSKYPYTFGQGTKLEIK	13	4.2
P1AG5046 (54_VH1b/VL1a_T699S) (antibody, V domains shown) VH: EVQLVESGGGLVKPGGSLRLSCAASGFTFSNAWMDWVRQAPGKGLEWIAQITAKSNNYATYYAAPVKGRFTISRDDSKNTLYLQMNSLKTEDTAVYYCTDDGYHWGQGTLVTVSS VL: AIQMTQSPSSLSASVGDRVTITCRASEDIRNGLAWYQQKPGKAPKLLIYNANSLHSGVPSRFSGSGSGTDFTLTISSLQPEDFATYYCEDTSKYPYTFGQGTKLEIK	3.9	1.9
P1AG5080 (54_VH1a_Y292D/VL2a) (antibody, V domains shown) VH: EVQLVESGGGLVKPGGSLRLSCAASGFTFSNAWMDWVRQAPGKGLEWVGQITAKSNNYATDYAAPVKGRFTISRDDSKNTLYLQMNSLKTEDTAVYYCTDDGYHWGQGTLVTVSS VL: DIQMTQSPSSLSASVGDRVTITCRASEDIRNGLAWYQQKPGKAPKLLIYNANSLHTGVPSRFSGSGSGTDFTLTISSLQPEDFATYYCEDTSKYPYTFGQGTKLEIK	4.3	1.3
P1AG5004 (E04_VH1a/VL1b) (antibody, V domains shown) VH: QVQLVQSGAEVKKPGASVKVSCKASGYTFTNYWMHWVRQAPGQGLEWMGIIHPNSGSTNYNEKFQGRVTMTRDTSTSTVYMELSSLRSEDTAVYYCARGIYDYPFAYWGQGTLVTVSS VL: DIQMTQSPSSLSASVGDRVTITCRASESVSIHGTHLMHWYQQKPGKAPKLLIYAASNLESGVPSRFSGSGSETDFTLTISSLQPEDFATYYCQQSIEDPYTFGGGTKVEIK	16	2.5
P1AG5053 (E04_VH1a/VL1h) (antibody, V domains shown) VH: QVQLVQSGAEVKKPGASVKVSCKASGYTFTNYWMHWVRQAPGQGLEWMGIIHPNSGSTNYNEKFQGRVTMTRDTSTSTVYMELSSLRSEDTAVYYCARGIYDYPFAYWGQGTLVTVSS VL: DIQMTQSPSSLSASVGDRVTITCRASESVSIHGTHLMHWYQQKPGKAPKLLIYAASNLESGVPSRFSGSGSETDFTLTISSLQPEDFATYFCQQSIEDPYTFGGGTKVEIK	13	2.4
P1AG5044 (E04_VH1b/VL1b) (antibody, V domains shown) VH: QVQLVQSGAEVKKPGASVKVSCKASGYTFTNYWMHWVRQAPGQGLEWMGIIHPNSGSTNYNEKFQGRVTMTVDKSTSTVYMELSSLRSEDTAVYYCARGIYDYPFAYWGQGTLVTVSS VL: DIQMTQSPSSLSASVGDRVTITCRASESVSIHGTHLMHWYQQKPGKAPKLLIYAASNLESGVPSRFSGSGSETDFTLTISSLQPEDFATYYCQQSIEDPYTFGGGTKVEIK	20	1.8
P1AG5076 (E04_VH1b/VL1h) (antibody, V domains shown) VH: QVQLVQSGAEVKKPGASVKVSCKASGYTFTNYWMHWVRQAPGQGLEWMGIIHPNSGSTNYNEKFQGRVTMTVDKSTSTVYMELSSLRSEDTAVYYCARGIYDYPFAYWGQGTLVTVSS VL: DIQMTQSPSSLSASVGDRVTITCRASESVSIHGTHLMHWYQQKPGKAPKLLIYAASNLESGVPSRFSGSGSETDFTLTISSLQPEDFATYFCQQSIEDPYTFGGGTKVEIK	23	1.9
P1AG5036 (E04_VH1a/VL1f) (antibody, V domains shown) VH: QVQLVQSGAEVKKPGASVKVSCKASGYTFTNYWMHWVRQAPGQGLEWMGIIHPNSGSTNYNEKFQGRVTMTRDTSTSTVYMELSSLRSEDTAVYYCARGIYDYPFAYWGQGTLVTVSS VL: DIQMTQSPSSLSASVGDRVTITCRASESVSIHGTHLMHWYQQKPGKAPKLLIYAASSLQSGVPSRFSGSGSETDFTLTISSLQPEDFATYYCQQSIEDPYTFGGGTKVEIK	9.5	2.9
P1AG5062 (E04 parental) (antibody, V domains shown) VH: QVQLQQPGAELVKPGASVKLSCKASGYTFTNYWMHWVKQRPGQGLEWIGIIHPNSGSTNYNEKFKSKATLTVDKSSSTAYMQLSSLTSEDSAVYYCARGIYDYPFAYWGQGTLVTVSS VL: DIVLTQSPASLAVSLGQRATISCRASESVSIHGTHLMHWYQQKPGQPPKLLIYAASNLESGVPARFSGSGSETDFTLNIHPVEEEDAATYFCQQSIEDPYTFGGGTKLEIK	33	3.1

The remaining lines, values ahead:

Kd (cynomolgus BCMA-Fc) [nM]	Kd (human BCMA-Fc) [nM]	Binder
4.7	2.4	P1AG5031 (54_VH2a/VL2a) (antibody, V domains shown) VH: EVQLLESGGGLVQPGGSLRLSCAASGFTFSNAWMDWVRQAPGKGLEWVSQITAKSNNYATYYADSVKGRFTISRDNSKNTLYLQMNSLRAEDTAVYYCTDDGYHWGQGTLVTVSS VL: DIQMTQSPSSLSASVGDRVTITCRASEDIRNGLAWYQQKPGKAPKLLIYNANSLHTGVPSRFSGSGSGTDFTLTISSLQPEDFATYYCEDTSKYPYTFGQGTKLEIK
4	1.7	P1AG5057 (54_VH1a_Y292D/VL1a) (antibody, V domains shown) VH: EVQLVESGGGLVKPGGSLRLSCAASGFTFSNAWMDWVRQAPGKGLEWVGQITAKSNNYATDYAAPVKGRFTISRDDSKNTLYLQMNSLKTEDTAVYYCTDDGYHWGQGTLVTVSS VL: AIQMTQSPSSLSASVGDRVTITCRASEDIRNGLAWYQQKPGKAPKLLIYNANSLHTGVPSRFSGSGSGTDFTLTISSLQPEDFATYYCEDTSKYPYTFGQGTKLEIK
13	3.5	P1AG5064 (54_VH1b/VL1a_N651A_N695S) (antibody, V domains shown) VH: EVQLVESGGGLVKPGGSLRLSCAASGFTFSNAWMDWVRQAPGKGLEWIAQITAKSNNYATYYAAPVKGRFTISRDDSKNTLYLQMNSLKTEDTAVYYCTDDGYHWGQGTLVTVSS VL: AIQMTQSPSSLSASVGDRVTITCRASEDIRNGLAWYQQKPGKAPKLLIYAASSLHTGVPSRFSGSGSGTDFTLTISSLQPEDFATYYCEDTSKYPYTFGQGTKLEIK
1.2	1.7	P1AG5027 (54_VH1b/VL1a_L1_pGL) (antibody, V domains shown) VH: EVQLVESGGGLVKPGGSLRLSCAASGFTFSNAWMDWVRQAPGKGLEWIAQITAKSNNYATYYAAPVKGRFTISRDDSKNTLYLQMNSLKTEDTAVYYCTDDGYHWGQGTLVTVSS VL: AIQMTQSPSSLSASVGDRVTITCRASEDIRNDLGWYQQKPGKAPKLLIYNANSLHTGVPSRFSGSGSGTDFTLTISSLQPEDFATYYCEDTSKYPYTFGQGTKLEIK
6.4	2.6	P1AG5065 (54_VH1a_Y292D/VL1a_T699S) (antibody, V domains shown) VH: EVQLVESGGGLVKPGGSLRLSCAASGFTFSNAWMDWVRQAPGKGLEWVGQITAKSNNYATDYAAPVKGRFTISRDDSKNTLYLQMNSLKTEDTAVYYCTDDGYHWGQGTLVTVSS VL: AIQMTQSPSSLSASVGDRVTITCRASEDIRNGLAWYQQKPGKAPKLLIYNANSLHSGVPSRFSGSGSGTDFTLTISSLQPEDFATYYCEDTSKYPYTFGQGTKLEIK
6.5	3.4	P1AG5071 (54_VH2a/VL1a_T699S) (antibody, V domains shown) VH: EVQLLESGGGLVQPGGSLRLSCAASGFTFSNAWMDWVRQAPGKGLEWVSQITAKSNNYATYYADSVKGRFTISRDNSKNTLYLQMNSLRAEDTAVYYCTDDGYHWGQGTLVTVSS VL: AIQMTQSPSSLSASVGDRVTITCRASEDIRNGLAWYQQKPGKAPKLLIYNANSLHSGVPSRFSGSGSGTDFTLTISSLQPEDFATYYCEDTSKYPYTFGQGTKLEIK
3.2	1.3	P1AG5072 (54_VH1b/VL1a) (antibody, V domains shown) VH: EVQLVESGGGLVKPGGSLRLSCAASGFTFSNAWMDWVRQAPGKGLEWIAQITAKSNNYATYYAAPVKGRFTISRDDSKNTLYLQMNSLKTEDTAVYYCTDDGYHWGQGTLVTVSS VL: AIQMTQSPSSLSASVGDRVTITCRASEDIRNGLAWYQQKPGKAPKLLIYNANSLHTGVPSRFSGSGSGTDFTLTISSLQPEDFATYYCEDTSKYPYTFGQGTKLEIK
1.9	2.4	P1AG5013 (54_VH2a/VL1a_L1_pGL) (antibody, V domains shown) VH: EVQLLESGGGLVQPGGSLRLSCAASGFTFSNAWMDWVRQAPGKGLEWVSQITAKSNNYATYYADSVKGRFTISRDNSKNTLYLQMNSLRAEDTAVYYCTDDGYHWGQGTLVTVSS VL: AIQMTQSPSSLSASVGDRVTITCRASEDIRNDLGWYQQKPGKAPKLLIYNANSLHTGVPSRFSGSGSGTDFTLTISSLQPEDFATYYCEDTSKYPYTFGQGTKLEIK
12	3	P1AG5007 (E04_VH1a/VL1e) (antibody, V domains shown) VH: QVQLVQSGAEVKKPGASVKVSCKASGYTFTNYWMHWVRQAPGQGLEWMGIIHPNSGSTNYNEKFQGRVTMTRDTSTSTVYMELSSLRSEDTAVYYCARGIYDYPFAYWGQGTLVTVSS VL: DIQMTQSPSSLSASVGDRVTITCRASESVSIHGTHLMHWYQQKPGKAPKLLIYAASSLQSGVPSRFSGSGSGTDFTLTISSLQPEDFATYYCQQSIEDPYTFGGGTKVEIK
28	1.6	P1AG5063 (E04_VH1a/VL1a) (antibody, V domains shown) VH: QVQLVQSGAEVKKPGASVKVSCKASGYTFTNYWMHWVRQAPGQGLEWMGIIHPNSGSTNYNEKFQGRVTMTRDTSTSTVYMELSSLRSEDTAVYYCARGIYDYPFAYWGQGTLVTVSS VL: DIQMTQSPSSLSASVGDRVTITCRASESVSIHGTHLMHWYQQKPGKAPKLLIYAASNLESGVPSRFSGSGSGTDFTLTISSLQPEDFATYYCQQSIEDPYTFGGGTKVEIK
22	2.4	P1AG5078 (E04_VH1b/VL1d) (antibody, V domains shown) VH: QVQLVQSGAEVKKPGASVKVSCKASGYTFTNYWMHWVRQAPGQGLEWMGIIHPNSGSTNYNEKFQGRVTMTVDKSTSTVYMELSSLRSEDTAVYYCARGIYDYPFAYWGQGTLVTVSS VL: DIQMTQSPSSLSASVGDRVTITCRASESVSIHGTHLMHWYQQKPGKAPKLLIYAASNLQSGVPSRFSGSGSETDFTLTISSLQPEDFATYYCQQSIEDPYTFGGGTKVEIK
